According to patent US20150241442A1:

Biological target: Leukocyte Function Antigen-1 (LFA-1), on cells (Jurkat T cells, human T cells, PBMC) (human) (UniProt P20701)
Test: cell-based or functional assay

Chain of Leukocyte Function Antigen-1 (LFA-1), on cells (Jurkat T cells, human T cells, PBMC) (human) (P20701 26-1170, chain 1 of 2): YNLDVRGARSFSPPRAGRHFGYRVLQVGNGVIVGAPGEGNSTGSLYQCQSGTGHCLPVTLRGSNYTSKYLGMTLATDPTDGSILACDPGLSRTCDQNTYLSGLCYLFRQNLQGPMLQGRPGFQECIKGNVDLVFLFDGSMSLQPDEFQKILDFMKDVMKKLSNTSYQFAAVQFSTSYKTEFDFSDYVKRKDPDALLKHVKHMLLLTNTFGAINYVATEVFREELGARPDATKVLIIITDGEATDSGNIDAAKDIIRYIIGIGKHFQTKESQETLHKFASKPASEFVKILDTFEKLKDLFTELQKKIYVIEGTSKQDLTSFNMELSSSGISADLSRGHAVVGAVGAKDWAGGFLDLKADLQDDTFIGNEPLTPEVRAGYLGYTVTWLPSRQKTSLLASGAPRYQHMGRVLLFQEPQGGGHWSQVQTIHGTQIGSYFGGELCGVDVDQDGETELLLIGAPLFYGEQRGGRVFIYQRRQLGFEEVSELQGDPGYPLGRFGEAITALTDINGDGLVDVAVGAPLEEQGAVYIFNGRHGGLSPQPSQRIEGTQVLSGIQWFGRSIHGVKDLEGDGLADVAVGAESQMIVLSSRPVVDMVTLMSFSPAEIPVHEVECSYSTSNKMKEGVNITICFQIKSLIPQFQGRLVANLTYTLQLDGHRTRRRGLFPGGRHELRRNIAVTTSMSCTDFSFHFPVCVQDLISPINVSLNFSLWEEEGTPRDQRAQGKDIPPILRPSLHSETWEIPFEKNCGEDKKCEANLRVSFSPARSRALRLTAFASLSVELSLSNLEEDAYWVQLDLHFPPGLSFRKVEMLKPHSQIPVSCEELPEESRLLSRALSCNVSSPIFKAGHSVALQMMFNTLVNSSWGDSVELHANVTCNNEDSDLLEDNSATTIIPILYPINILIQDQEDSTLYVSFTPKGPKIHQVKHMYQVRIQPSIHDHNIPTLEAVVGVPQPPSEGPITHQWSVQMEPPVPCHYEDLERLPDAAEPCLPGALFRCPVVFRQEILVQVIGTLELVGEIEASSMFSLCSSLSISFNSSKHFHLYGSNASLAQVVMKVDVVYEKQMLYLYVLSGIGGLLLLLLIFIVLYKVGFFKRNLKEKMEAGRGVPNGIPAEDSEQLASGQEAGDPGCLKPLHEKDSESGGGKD
Chain of Leukocyte Function Antigen-1 (LFA-1), on cells (Jurkat T cells, human T cells, PBMC) (human) (P05107 23-769, chain 2 of 2, further chain): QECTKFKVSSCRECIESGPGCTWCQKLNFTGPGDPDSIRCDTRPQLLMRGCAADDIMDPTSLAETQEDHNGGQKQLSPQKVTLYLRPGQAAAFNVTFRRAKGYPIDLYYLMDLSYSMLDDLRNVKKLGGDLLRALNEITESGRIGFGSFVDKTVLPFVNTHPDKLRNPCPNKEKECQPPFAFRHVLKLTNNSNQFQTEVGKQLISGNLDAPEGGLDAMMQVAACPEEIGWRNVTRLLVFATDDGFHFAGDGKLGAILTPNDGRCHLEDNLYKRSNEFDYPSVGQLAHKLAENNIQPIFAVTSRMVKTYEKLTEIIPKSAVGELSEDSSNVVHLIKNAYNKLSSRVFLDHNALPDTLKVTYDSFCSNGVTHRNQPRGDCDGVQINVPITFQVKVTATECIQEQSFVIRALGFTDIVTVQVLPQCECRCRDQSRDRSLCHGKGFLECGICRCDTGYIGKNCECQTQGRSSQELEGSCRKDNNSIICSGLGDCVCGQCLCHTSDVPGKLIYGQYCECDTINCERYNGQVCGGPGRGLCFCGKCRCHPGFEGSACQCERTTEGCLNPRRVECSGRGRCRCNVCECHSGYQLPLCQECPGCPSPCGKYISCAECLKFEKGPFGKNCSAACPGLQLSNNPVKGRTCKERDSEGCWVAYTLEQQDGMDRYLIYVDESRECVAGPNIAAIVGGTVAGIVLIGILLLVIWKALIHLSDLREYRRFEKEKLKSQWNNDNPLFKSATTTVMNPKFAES

frequency of the perforin negative population, CD56+CD8med cells [%] | granzyme-A negative population, CD56+CD8high cells [%] | Binder
21.5 | 58.3 | recombinant human ICAM2-FC (Fc fusion, UniProt P13598 25-223, looked up, not shown: a dimerising Fc or GST) KVFEVHVRPKKLAVEPKGSLEVNCSTTCNQPEVGGLETSLDKILLDEQAQWKHYLVSNISHDTVLQCHFTCSGKQESMNSNVSVYQPPRQVILTLQPTLVAVGKSFTIECRVPTVEPLDSLTLFLFRGNETLHYETFGKAAPAPQEATATFNSTADREDGHRNFSCLAVLDLMSRGGNIFHKHSAPKMLEIYEPVSDSQ
19.8 | 3.07 | recombinant human ICAM3-FC (Fc fusion, UniProt P32942 30-485, looked up, not shown: a dimerising Fc or GST) QEFLLRVEPQNPVLSAGGSLFVNCSTDCPSSEKIALETSLSKELVASGMGWAAFNLSNVTGNSRILCSVYCNGSQITGSSNITVYRLPERVELAPLPPWQPVGQNFTLRCQVEDGSPRTSLTVVLLRWEEELSRQPAVEEPAEVTATVLASRDDHGAPFSCRTELDMQPQGLGLFVNTSAPRQLRTFVLPVTPPRLVAPRFLEVETSWPVDCTLDGLFPASEAQVYLALGDQMLNATVMNHGDTLTATATATARADQEGAREIVCNVTLGGERREARENLTVFSFLGPIVNLSEPTAHEGSTVTVSCMAGARVQVTLDGVPAAAPGQPAQLQLNATESDDGRSFFCSATLEVDGEFLHRNSSVQLRVLYGPKIDRATCPQHLKWKDKTRHVLQCQARGNPYPELRCLKEGSSREVPVGIPFFVNVTHNGTYQCQASSSRGKYTLVVVMDIEAGSSH
